Results published in US12559749B2, “Methods of rescuing stop codons via genetic reassignment with ACE-tRNA” (UNIVERSITY OF IOWA RESEARCH FOUNDATION, priority 2017, dated 2026).

Key:
[1] = test system: NanoLuc-TGA, TAA or TAG; format: cell-based, human; details: transiently transfected HEK293 cells; listed as Glychr19.t2
[2] = test system: CFTR G542X; test: Two-electrode voltage clamp of CFTR Cl- current in Xenopus oocytes, G542X; format: cell-based
Procedure: FIGS. 20A-20D. Delivery of ACE-tRNA as small RNA supports robust suppression of G542X and W1282X nonsense mutations. FIG. 20A) CFTR cRNA with G542X or W1282X cystic fibrosis causing nonsense mutations was co-injected in Xenopus oocytes with serial dilutions of pre-folded ACE-tRNAGly and ACE-tRNATrp, respectively. Two-electrode voltage-clamp recordings of CFTR Cl— current were performed after 36 hrs. Current-voltage relationships illustrate that increasing amounts of FIG. 20B) ACE-tRNATrp and FIG. 20C) ACE-tRNAGly pre-folded RNA results in increased CFTR function (measured CFTR Cl— currents) with WT CFTR achieved in ACE-tRNAGly experiments. FIG. 20D) Dose response of G542X ACE-tRNAGly (filled circles) and W1282X ACE-tRNATrp (open squares) rescue (CFTR Cl— currents elicited at +40 mV were normalized to WT CFTR Cl— currents at +40 mV).
In vitro cRNA transcription. G5-42XUGA, W1282XUGA, and WT CFTR pGEMHE (Mense et al., 2006; PMID:1703051) plasmids were linearized by 10× excess of NheI-HF restriction enzyme (site positioned 3′ of coding region)(New England BioLabs, USA) for 3 hrs at 37° C. and purified using standard cDNA precipitation methods. All cRNAs were transcribed using the mMessage mMachine T7 Kit (ThermoFisher Scientific, USA). Purification of the cRNA from the transcription reaction was conducted on columns from the RNeasy Mini Kit (Qiagen, Germany). Concentration was determined by absorbance measurements at 260 nm and quality was confirmed on a 1% agarose gel (RNase-free). All cRNA was queued to 1 μg/ml before use and all results were generated from ≥2:2 cRNA preparations.
Expression in Xenopus laevis oocytes. Xenopus laevis oocytes (stage V and VI) were purchased from Ecocyte (Austin, TX). […]
Two-electrode voltage clamp ([…]) recordings. CFTR Cl^− currents were recorded in ND96 bath solution that contained (in mM): 96 NaCl, 2 KCl, 1 MgCl2, and 5 HEPES (pH 7.5) in the presence of a maximal CFTR activation cocktail, forskolin (10 μM; adenylate cyclase activator) and 3-isobutyl-1-methylxanthine (1 mM; phosphodiesterase inhibitor). […]

B1: Glychr19.trna2: top performing glycine ACE-tRNA UGA, SEQ ID NO: 53 (nucleic acid)
chain: GCGUUGGUGGUAUAGUGGUUAGCAUAGCUGCCUUCAAAGCAGUUGACCCGGGUUCGAUUCCCGGCCAACGCA
modifications: chemistry not given here
stop codon selectivity (UGA over UAA and UAG) [1]: selectively suppresses the UGA stop codon
Hill coefficient ([2]; dose response of G542X rescue): ~1.4
level of CFTR function reached ([2]; normalized to WT CFTR Cl- currents): clear saturation at WT CFTR levels
EC50 of CFTR Cl- current rescue ([2]; pre-folded ACE-tRNA RNA per oocyte, 36 hrs, currents at +40 mV normalized to WT CFTR): ~20 ng
